Here are results for 5 substances from article PMC11848828.

What is called Kd is the constant that tells how readily two partners part at equilibrium. Higher therefore signals lower affinity.

For experiment [1], the target named is Human 14-3-3ζ protein (human) (UniProt P63104). Put plainly: ITC. On the technique in general: ITC needs no label: the signal is the heat of the interaction.
For experiment [2] the target is unchanged. In words: real-time 1D 1H NMR.

Chain of UniProt P63104 (P63104 whole entry): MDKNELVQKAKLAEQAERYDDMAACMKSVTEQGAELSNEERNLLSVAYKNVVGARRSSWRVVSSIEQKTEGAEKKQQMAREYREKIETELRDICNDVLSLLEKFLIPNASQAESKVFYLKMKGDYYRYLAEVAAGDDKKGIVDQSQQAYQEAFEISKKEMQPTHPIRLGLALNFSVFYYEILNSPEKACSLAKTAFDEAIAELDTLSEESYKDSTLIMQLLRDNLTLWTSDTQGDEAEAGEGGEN

In experiment [1], PRLR P393V variant peptide yielded a Kd of 28 µM and a dH of -3.08 kcal/mol.
In experiment [1], PRLR W392A variant peptide showed a Kd of 4 µM and a dH of -8.17 kcal/mol.
Substance PRLR W392L variant peptide came in with a Kd in experiment [1] of 13 µM.
In experiment [1], PRLR W392Y variant peptide displayed a Kd, two-sets-of-sites model, first set of 0.4 µM; a Kd, two-sets-of-sites model, second set of 2.3 µM; a dH of -4.88 kcal/mol; a dH of the cis proline isomer of -4.64 kcal/mol. In addition, in experiment [1], the dH of the trans proline isomer is -5.4 kcal/mol.
In experiment [1], “PRLR WT peptide (21-residue phosphorylated fragment of the human prolactin receptor intracellular domain, pThr391)” gave a dH of -5.62 kcal/mol. In experiment [2], the concentration of the cis isomer bound instantly (t0) was determined as 101 µM.
